Assay: Diffusion coefficient of His-tagged FtsAs and His-SUMO on Tris-NTA membranes (FRAP)
Procedure: To study colocalization of His-tagged variants of FtsA, 0.5–1 µM of Cy5 labelled His-tagged FtsAs were added to the chamber, incubated for 20 min and washed 6x with reaction buffer. […] To control the density of membrane-bound FtsA, SUVs without and with Tris-NTA lipids were mixed to obtain the respective Tris-NTA concentrations. To perform FRET/FRAP experiments, equimolar concentrations of Cy3 and Cy5 labelled His-tagged FtsAs (total 0.5–1 µM) or His-SUMO-Cys were added to a chamber and treated as above. […] FRAP experiments were performed as described before.
Bleaching the acceptor dye leads to an increase in the donor intensity, which can be used to quantify the Foerster Resonance energy transfer (FRET)[48]. FRET efficiency was quantified with E%=Ipost/Ipost+Ipre⋅100 , where Ipost is the intensity of the […] and Ipre is the […]. […] To extract the contribution of both processes, we adjusted a routine recently published by Gerganova et al.[33]. In short, the code provides the contribution of both modes of recovery by analysing the shape of the fluorescence recovery profile. […] Contribution of diffusion leads to a change of the slope of the outer borders of the bleached region (S4h right). Thus, by measuring the change of the slope of the border recovery, diffusion and simple on/off binding can be distinguished. We developed “FRAPdiff”, a graphical user interface, which uses the original fit routine by David Rutkowski. It can be used directly on.tiff movies with annotated bleach regions as ImageJ ROIs. In addition, we added optional bleach correction, user selectable projection axis (x or y), and optional mirroring of the recovery profiles, if bleaching was not symmetric. The original fit routine for estimating the recovery and diffusion dynamics can be found at https://github.com/davidmrutkowski/1DReflectingDiffusion. FRAPdiff is available at 10.5281/zenodo.6400639[49] under the GPLv3 open-source license.

B1: FtsA R286W-His6: FtsA R286W (1-405) with amphipathic helix replaced by C-terminal His-tag (protein)
chain: MIKATDRKLVVGLEIGTAKVAALVGEVLPDGMVNIIGVGSCPSRGMDKGGVNDLESVVKCVQRAIDQAELMADCQISSVYLALSGKHISCQNEIGMVPISEEEVTQEDVENVVHTAKSVRVRDEHRVLHVIPQEYAIDYQEGIKNPVGLSGVRMQAKVHLITCHNDMAKNIVKAVERCGLKVDQLIFAGLASSYSVLTEDERELGVCVVDIGGGTMDIAVYTGGALRHTKVIPYAGNVVTSDIAYAFGTPPSDAEAIKVRHGCALGSIVGKDESVEVPSVGGRPPWSLQRQTLAEVIEPRYTELLNLVNEEILQLQEKLRQQGVKHHLAAGIVLTGGAAQIEGLAACAQRVFHTQVRIGAPLNITGLTDYAQEPYYSTAVGLLHYGKESHLNGEAEVEKRVTASV
modifications: Cy3 or Cy5 at the N-terminus in the labelled form (sortagging as for native FtsA); left off: TwinStrep-SUMO, N-terminal, cleaved | 5xGlycine tag, N-terminal, kept | His6, C-terminal, kept
- Diffusion Coefficient (0.1% Tris NTA, + FtsZ, mean (n: WT 2, R286W 3)): 0.17 µm2/s
- Diffusion Coefficient (0.1% Tris NTA, + FtsZ, replicate Exp1): 0.12 µm2/s
- Diffusion Coefficient (0.1% Tris NTA, + FtsZ, replicate Exp2): 0.17 µm2/s
- Diffusion Coefficient (0.1% Tris NTA, + FtsZ, replicate Exp3): 0.22 µm2/s
- Diffusion Coefficient (0.1% Tris NTA, without FtsZ, mean (n: WT 2, R286W 3, SUMO 2)): 0.50 µm2/s
- Diffusion Coefficient (0.1% Tris NTA, without FtsZ, replicate Exp1): 0.48 µm2/s
- Diffusion Coefficient (0.1% Tris NTA, without FtsZ, replicate Exp2): 0.53 µm2/s
- Diffusion Coefficient (0.1% Tris NTA, without FtsZ, replicate Exp3): 0.50 µm2/s
- Diffusion Coefficient (0.4% Tris NTA, + FtsZ, mean (n: WT 2, R286W 3)): 0.08 µm2/s
- Diffusion Coefficient (0.4% Tris NTA, + FtsZ, replicate Exp1): 0.12 µm2/s
- Diffusion Coefficient (0.4% Tris NTA, + FtsZ, replicate Exp2): 0.11 µm2/s
- Diffusion Coefficient (0.4% Tris NTA, + FtsZ, replicate Exp3): 0.0041 µm2/s
- Diffusion Coefficient (0.4% Tris NTA, without FtsZ, mean (n: WT 2, R286W 3, SUMO 3)): 0.44 µm2/s
- Diffusion Coefficient (0.4% Tris NTA, without FtsZ, replicate Exp1): 0.31 µm2/s
- Diffusion Coefficient (0.4% Tris NTA, without FtsZ, replicate Exp2): 0.56 µm2/s
- Diffusion Coefficient (0.4% Tris NTA, without FtsZ, replicate Exp3): 0.45 µm2/s
- Diffusion Coefficient (0.6% Tris NTA, + FtsZ, mean (n: WT 5, R286W 5)): 0.0744 µm2/s
- Diffusion Coefficient (0.6% Tris NTA, + FtsZ, replicate Exp1): 0.12 µm2/s
- Diffusion Coefficient (0.6% Tris NTA, + FtsZ, replicate Exp2): 2.02e-8 µm2/s
- Diffusion Coefficient (0.6% Tris NTA, + FtsZ, replicate Exp3): 9.38e-5 µm2/s
- Diffusion Coefficient (0.6% Tris NTA, + FtsZ, replicate Exp4): 0.15 µm2/s
- Diffusion Coefficient (0.6% Tris NTA, + FtsZ, replicate Exp5): 0.11 µm2/s
- Diffusion Coefficient (0.6% Tris NTA, without FtsZ, mean (n: WT 4, R286W 5, SUMO 4)): 0.33 µm2/s
- Diffusion Coefficient (0.6% Tris NTA, without FtsZ, replicate Exp1): 0.43 µm2/s
- Diffusion Coefficient (0.6% Tris NTA, without FtsZ, replicate Exp2): 0.38 µm2/s
- Diffusion Coefficient (0.6% Tris NTA, without FtsZ, replicate Exp3): 0.25 µm2/s
- Diffusion Coefficient (0.6% Tris NTA, without FtsZ, replicate Exp4): 0.30 µm2/s
- Diffusion Coefficient (0.6% Tris NTA, without FtsZ, replicate Exp5): 0.28 µm2/s
- Diffusion Coefficient (0.8% Tris NTA, + FtsZ, mean): 0.04 µm2/s
- Diffusion Coefficient (0.8% Tris NTA, + FtsZ, replicate Exp1): 0.07 µm2/s
- Diffusion Coefficient (0.8% Tris NTA, + FtsZ, replicate Exp2): 0.02 µm2/s
- Diffusion Coefficient (0.8% Tris NTA, + FtsZ, replicate Exp3): 0.0271 µm2/s
- Diffusion Coefficient (0.8% Tris NTA, + FtsZ, replicate Exp4): 0.0336 µm2/s
- Diffusion Coefficient (0.8% Tris NTA, + FtsZ, replicate Exp5): 0.0229 µm2/s
- Diffusion Coefficient (0.8% Tris NTA, + FtsZ, replicate Exp6): 0.06 µm2/s
- Diffusion Coefficient (0.8% Tris NTA, without FtsZ, mean): 0.22 µm2/s
- Diffusion Coefficient (0.8% Tris NTA, without FtsZ, replicate Exp1): 0.17 µm2/s
- Diffusion Coefficient (0.8% Tris NTA, without FtsZ, replicate Exp2): 0.22 µm2/s
- Diffusion Coefficient (0.8% Tris NTA, without FtsZ, replicate Exp3): 0.26 µm2/s
- Diffusion Coefficient (0.8% Tris NTA, without FtsZ, replicate Exp4): 0.17 µm2/s
- Diffusion Coefficient (0.8% Tris NTA, without FtsZ, replicate Exp5): 0.30 µm2/s
- Diffusion Coefficient (0.8% Tris NTA, without FtsZ, replicate Exp6): 0.20 µm2/s
- Diffusion Coefficient (1% Tris NTA, + FtsZ, mean): 0.04 µm2/s
- Diffusion Coefficient (1% Tris NTA, + FtsZ, replicate Exp1): 0.0437 µm2/s
- Diffusion Coefficient (1% Tris NTA, + FtsZ, replicate Exp2): 0.0187 µm2/s
- Diffusion Coefficient (1% Tris NTA, + FtsZ, replicate Exp3): 0.046 µm2/s
- Diffusion Coefficient (1% Tris NTA, + FtsZ, replicate Exp4): 0.0142 µm2/s
- Diffusion Coefficient (1% Tris NTA, + FtsZ, replicate Exp5): 0.03 µm2/s
- Diffusion Coefficient (1% Tris NTA, + FtsZ, replicate Exp6): 0.09 µm2/s
- Diffusion Coefficient (1% Tris NTA, without FtsZ, mean): 0.22 µm2/s
- Diffusion Coefficient (1% Tris NTA, without FtsZ, replicate Exp1): 0.32 µm2/s
- Diffusion Coefficient (1% Tris NTA, without FtsZ, replicate Exp2): 0.13 µm2/s
- Diffusion Coefficient (1% Tris NTA, without FtsZ, replicate Exp3): 0.42 µm2/s
- Diffusion Coefficient (1% Tris NTA, without FtsZ, replicate Exp4): 0.24 µm2/s
- Diffusion Coefficient (1% Tris NTA, without FtsZ, replicate Exp5): 0.09 µm2/s
- Diffusion Coefficient (1% Tris NTA, without FtsZ, replicate Exp6): 0.14 µm2/s
- Diffusion Coefficient (Tris 0.10 %, + FtsZ): 0.17 µm2/s
- Diffusion Coefficient (Tris 0.10 %, without FtsZ): 0.50 µm2/s
- Diffusion Coefficient (Tris 0.40 %, + FtsZ): 0.08 µm2/s
- Diffusion Coefficient (Tris 0.40 %, without FtsZ): 0.44 µm2/s
- Diffusion Coefficient (Tris 0.60 %, + FtsZ): 0.0744 µm2/s
- Diffusion Coefficient (Tris 0.60 %, without FtsZ): 0.33 µm2/s
- Diffusion Coefficient (Tris 0.80 %, + FtsZ): 0.04 µm2/s
- Diffusion Coefficient (Tris 0.80 %, without FtsZ): 0.22 µm2/s
- Diffusion Coefficient (Tris 1.00 %, + FtsZ): 0.04 µm2/s
- Diffusion Coefficient (Tris 1.00 %, without FtsZ): 0.22 µm2/s
- Diffusion Coefficient (Tris 2.00 %, + FtsZ): 0.02 µm2/s
- Diffusion Coefficient (Tris 2.00 %, without FtsZ): 0.035 µm2/s
- Diffusion Coefficient ([…] Tris NTA, + FtsZ, mean (n: WT 2, R286W 3)): 0.14 µm2/s
- Diffusion Coefficient ([…] Tris NTA, + FtsZ, replicate Exp1): 0.34 µm2/s
- Diffusion Coefficient ([…] Tris NTA, + FtsZ, replicate Exp2): 0.000447 µm2/s
- Diffusion Coefficient ([…] Tris NTA, + FtsZ, replicate Exp3): 0.07 µm2/s
- Diffusion Coefficient ([…] Tris NTA, without FtsZ, mean (n: WT 2, R286W 3, SUMO 3)): 0.42 µm2/s
- Diffusion Coefficient ([…] Tris NTA, without FtsZ, replicate Exp1): 0.55 µm2/s
- Diffusion Coefficient ([…] Tris NTA, without FtsZ, replicate Exp2): 0.25 µm2/s
- Diffusion Coefficient ([…] Tris NTA, without FtsZ, replicate Exp3): 0.47 µm2/s
- Diffusion Coefficient ([…] Tris-NTA, + N (FtsNcyto), mean): 4.17E-05 µm2/s
- Diffusion Coefficient ([…] Tris-NTA, + N/Z, Exp. 1): 2.50E-03 µm2/s
- Diffusion Coefficient ([…] Tris-NTA, + N/Z, Exp. 2): 2.00E-05 µm2/s
- Diffusion Coefficient ([…] Tris-NTA, + N/Z, Exp. 3): 1.00E-05 µm2/s
- Diffusion Coefficient ([…] Tris-NTA, + N/Z, mean): 8.43E-04 µm2/s
- Diffusion Coefficient ([…] Tris-NTA, + N, Exp. 1): 7.50E-05 µm2/s
- Diffusion Coefficient ([…] Tris-NTA, + N, Exp. 2): 3.00E-05 µm2/s
- Diffusion Coefficient ([…] Tris-NTA, + N, Exp. 3): 2.00E-05 µm2/s
- Diffusion Coefficient ([…] Tris-NTA, + Z (FtsZ), mean): 0.05 µm2/s
- Diffusion Coefficient ([…] Tris-NTA, + Z, Exp. 1): 0.0229 µm2/s
- Diffusion Coefficient ([…] Tris-NTA, + Z, Exp. 2): 0.04 µm2/s
- Diffusion Coefficient ([…] Tris-NTA, + Z, Exp. 3): 0.08 µm2/s
- Diffusion Coefficient ([…] Tris-NTA, alone, Exp. 1): 0.14 µm2/s
- Diffusion Coefficient ([…] Tris-NTA, alone, Exp. 2): 0.0561 µm2/s
- Diffusion Coefficient ([…] Tris-NTA, alone, Exp. 3): 0.26 µm2/s
- Diffusion Coefficient ([…] Tris-NTA, alone, mean): 0.15 µm2/s
- Diffusion Coefficient (with FtsNcyto, mean ± s.d., p-value 0.01): 8.43 × 10^−4 ± 1.17 × 10^−3 µm^2/s
- Diffusion Coefficient (without FtsNcyto, mean ± s.d., p-value 0.01): 0.05 ± 0.04 µm^2/s

From paper PMC9098913, “In vitro reconstitution of Escherichia coli divisome activation” (Nature Communications, 2022)
